Measured values taken from article PMC9036094, “Antigen-derived peptides engage the ER stress sensor IRE1α to curb dendritic cell cross-presentation” (The Journal of Cell Biology, 2022).
Entries after “also recorded” stand apart in the source; their conditions may differ.

How the values were obtained:
IRE1α LD-Fc = experiment: Plate-based ovalbumin binding to IRE1α LD-Fc; parameters: species or system human; conditions: LD-Fc 10 μg/ml, 2 h, room temperature; in words
Procedure: For experiments testing ovalbumin binding, a human LD-Fc was used at indicated concentrations. LD-Fc is comprised of amino acids M1-D443 of IRE1α fused C-terminally to a linker ([…]) followed by the human IgG1 hinge and Fc portion. Ovalbumin (Sigma-Aldrich) was dissolved in sterile PBS and used in native state or denatured as indicated by incubation at 95°C buffer for 10 min.
For plate-based binding experiments, native or heat-denatured ovalbumin at indicated concentrations was bound to a flat-bottom 96-well plate (Corning Inc.) with coating buffer (BioLegend), washed with PBSt, blocked with 1% BSA in PBS, and subsequently incubated with IRE1α LD-Fc (10 μg/ml) in binding buffer composed of PBS with 20 mM Hepes, 100 mM KOAc, and 0.2% tween-20 for 2 h at room temperature. Plates were washed again with PBSt and incubated with an anti-human Fc HRP-conjugated antibody (ab977225; Abcam). Development was performed with 3,3′,5,5′-Tetramethylbenzidine solution and terminated with Stop solution (BioLegend). Readings were taken with a SpectraMax M2 spectrometer (Molecular Devices).

[1] = tested on: IRE1α (XBP1s, pIRE1α) in BMDCs; experiment: IRE1α activation in BMDCs (immunoblot); format: cell-based, mouse
Procedure: Figure 1. Antigen pulsing of BMDCs activates IRE1α. (A) BMDCs were pulsed with ovalbumin (starting at 62.5 μg/ml and sequentially doubled) and analyzed by immunoblot (IB) for the indicated markers. (B) BMDCs were pulsed with ovalbumin (starting at 500 μg/ml and sequentially halved) or […] (1 μM), or stimulated with tunicamycin (1 μg/ml) or poly-I:C (25 μg/ml) for 4 h, and analyzed by IB. (C) BMDCs were pulsed with ovalbumin (500 μg/ml) for indicated time points and analyzed by IB. (D) BMDCs were pulsed for 4 h with ovalbumin or lysates derived from the indicated cell lines (500 μg/ml protein) and analyzed by IB. […] (F) Upon removal from bone marrow, total bone marrow cells were transfected with non-targeting control (NTC) or TAP1-targeting gRNAs, along with CRISPR/Cas9 delivery constructs. Cells were then subjected to standard BMDC-differentiation protocol, pulsed with ovalbumin (500 μg/ml) for 4 h, and analyzed by IB. All IB images are representative of at least two similar experiments, and molecular weights represent kD. Source data are available for this figure: SourceData F1.
For purification and differentiation of BMDCs, the femur and tibia bones of C57BL/6 mice were flushed with sterile PBS, and bone marrow cells were then cultured in RPMI1640 media as described above and further supplemented with […] β2-mercaptoethanol (Sigma-Aldrich), 20 ng/ml GM-CSF (BioLegend), and 10 ng/ml IL-4 (BioLegend) for 9 d, with media being replenished every 3 d. Where indicated, Flt3L-BMDCs were similarly generated using media supplemented with 200 ng/ml recombinant mouse Flt3L (PeproTech; [Brasel et al., 2000]). After 9 d of culture, BMDCs were routinely verified to be >90% CD11c^+ MHC-II^high by flow cytometry analysis.
Thapsigargin (Sigma-Aldrich) was used at 100 nM, tunicamycin (Sigma-Aldrich) was used at 5 μg/ml, MG132 (Sigma-Aldrich) was used at 5 μM, Amiloride (Sigma-Aldrich) was used at 10 μM, actinomycin D (Sigma-Aldrich) was used at 4 μg/ml, LPS (Sigma-Aldrich) was used at 10 μg/ml, and poly-I:C (Sigma-Aldrich) was used at 25 μg/ml. Ovalbumin (Sigma-Aldrich), EF-OVA (EndoFit; InvivoGen), […] peptide (Sigma-Aldrich), and human CD4-Fc fusion protein (generated in-house at Genentech) were dissolved in PBS prior to pulsing and used at indicated concentrations.
Cells were lysed in PBS solution supplemented with 1X radioimmunoprecipitation assay buffer (Millipore) and 2X Halt protease-phosphatase inhibitor cocktail (Thermo Fisher Scientific). Upon clearance, samples were analyzed by SDS-PAGE, electrotransferred to nitrocellulose membranes (Invitrogen), and blocked by 5% powdered milk in PBSt (PBS supplemented with 0.1% tween) solution. Development was conducted with ECL reagent (Thermo Fisher Scientific) and imaging was performed with the ChemiDoc ZRS+ imager (Bio-Rad). Antibodies used for Western blot analysis include IRE1α (3294, rabbit; Cell Signaling Technology), β-actin (5125, rabbit; Cell Signaling), GAPDH (97166, mouse; Cell Signaling), ATF6 (66563-1-Ig, mouse; ProteinTech), TAP1 (12341, rabbit; Cell Signaling), CHOP (2895, mouse; Cell Signaling), ATF4 (11815, rabbit; Cell Signaling), ovalbumin (P1-196, rabbit; Thermo Fisher Scientific), human Fc (ab977225, rabbit; Abcam), Myc tag (2272, rabbit; Cell Signaling), and biotin (5597, rabbit; Cell Signaling). IRE1α lumenal domain (mouse), XBP1s (rabbit), and pIRE1α (rabbit) antibodies were generated at Genentech. Secondary antibodies used were for mouse (715-035-150; The Jackson Laboratory) and rabbit (711-035-152; The Jackson Laboratory).

B1: ovalbumin: classical protein antigen ovalbumin (Sigma-Aldrich) (protein)
chain: MGSIGAASMEFCFDVFKELKVHHANENIFYCPIAIMSALAMVYLGAKDSTRTQINKVVRFDKLPGFGDSIEAQCGTSVNVHSSLRDILNQITKPNDVYSFSLASRLYAEERYPILPEYLQCVKELYRGGLEPINFQTAADQARELINSWVESQTNGIIRNVLQPSSVDSQTAMVLVNAIVFKGLWEKAFKDEDTQAMPFRVTEQESKPVQMMYQIGLFRVASMASEKMKILELPFASGTMSMLVLLPDEVSGLEQLESIINFEKLTEWTSSNVMEERKIKVYLPRMKMEEKYNLTSVLMAMGITDVFSSSANLSGISSAESLKISQAVHAAHAEINEAGREVVGSAEAGVDAASVSEEFRADHPFLFCIKHIATNAVLFFGRCVSP
binding to immobilized IRE1α LD-Fc (IRE1α LD-Fc): little binding over background | time of peak IRE1α phosphorylation ([1]; 4-h pulse, ovalbumin 500 μg/ml): 2 h | time of peak XBP1s protein ([1]; 4-h pulse, ovalbumin 500 μg/ml): 2 to 4 h | IRE1α activation ([1]; GM-CSF + IL-4 BMDCs, immunoblot for XBP1s/pIRE1α, in words): concentration- and time-dependent activation of IRE1α; also recorded: much weaker IRE1α activation than did the potent pharmacological ER-stressor tunicamycin; also recorded: only IRE1α exhibited substantial activation
